Data published in PMC3718016.

Key:
SRPK1(ΔSα1) = SRPK1(ΔSα1) (UniProt Q96SB4)
[1] = biological target: SRPK1(ΔS), SRPK1 without the spacer insert domain (UniProt Q96SB4)
SRPK1(ΔNCT) = SRPK1(ΔNCT) (UniProt Q96SB4)
SRPK1(ΔSα2) = SRPK1(ΔSα2) (UniProt Q96SB4)
SRPK1(ΔSINT) = SRPK1(ΔSINT) (UniProt Q96SB4)
[2] = biological target: SRPK1(ΔN), SRPK1 without the N-terminus (UniProt Q96SB4)
SRPK1(ΔNNT) = SRPK1(ΔNNT) (UniProt Q96SB4)

Question: How did the kcat/KSR (steady-state kinetics with maximum viscosity effect) (SRPK1(ΔSα1)) turn out when “SR protein splicing factor 1 (SRSF1) (from UniProt Q07955 1-248) (natural protein)” was run?
Answer: 2.2e+06 M⁻¹ s⁻¹

Question: What about the Km for SRSF1 (KSR), steady-state phosphorylation of SRSF1 [1] of the same substance?
Answer: 0.14 µM

Question: What about the Km for SRSF1 (KSR), steady-state phosphorylation of SRSF1 (SRPK1(ΔNCT)) of the same substance?
Answer: 0.41 µM

Question: What about the kcat/KSR (steady-state kinetics with maximum viscosity effect) (SRPK1(ΔSα2)) of the same substance?
Answer: 6.9e+06 M⁻¹ s⁻¹

Question: What about the kcat/KSR (steady-state kinetics with maximum viscosity effect) (SRPK1(ΔSINT)) of the same substance?
Answer: 5.3e+06 M⁻¹ s⁻¹

Question: And the Km for SRSF1 (KSR), steady-state phosphorylation of SRSF1 [2]?
Answer: 0.44 µM

Question: What about the Km for SRSF1 (KSR), steady-state phosphorylation of SRSF1 (SRPK1(ΔNNT)) of the same substance?
Answer: 0.038 µM
